One assay concerns the target T1, ICE LAP-6 (Homo sapiens, UniProt P55211, A28V/A96G/Q221R).
T1 construct: transiently transfected with an expression vector encoding the full-length ICE LAP-6 protein (ICE LAP-6-flag); expressed in transfected cells; host or cells: MCF7 breast carcinoma cells, pcDNA3 vector
T1 sequence (P55211 1-416 A28V/A96G/Q221R): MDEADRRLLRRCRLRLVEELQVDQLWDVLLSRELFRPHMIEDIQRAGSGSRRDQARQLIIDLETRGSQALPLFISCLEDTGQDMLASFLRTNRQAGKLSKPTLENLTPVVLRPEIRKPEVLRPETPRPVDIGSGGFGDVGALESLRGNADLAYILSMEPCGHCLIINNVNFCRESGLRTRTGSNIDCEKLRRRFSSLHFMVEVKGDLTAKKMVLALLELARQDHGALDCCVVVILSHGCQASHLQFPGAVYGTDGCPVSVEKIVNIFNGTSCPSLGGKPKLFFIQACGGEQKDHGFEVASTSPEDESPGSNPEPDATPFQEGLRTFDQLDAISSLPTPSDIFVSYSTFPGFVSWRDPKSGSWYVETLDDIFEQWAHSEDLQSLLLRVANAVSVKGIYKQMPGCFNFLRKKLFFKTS
In words: Inhibition of ICE LAP-6 induced apoptosis in transfected MCF7 cells. The assay is classed as cell-based. Conditions: MCF7 cells transfected with ICE LAP-6-flag. Here is the method: (§1) MCF7 breast carcinoma cells were transiently transfected as described previously (Chinnaiyan, A. M., et al (1995) Cell 81, 505–512). Briefly, 2.5×10^5 MCF7 cells were transfected with 0.25 μg of the reporter plasmid pCMV β-galactosidase plus 1 μg of test plasmid in 6-well tissue culture dishes using lipofectamine as per manufacturer's instructions. The transfection was carried out in 1 ml of Opti-MEM Minimal Media (GMBCO-BRL) and after 5 hours, 1 ml of serum-containing growth media was added. Two days later, the cells were fixed with 0.5% glutaraldehyde and stained with X-gal for 4 hours. Cells were visualized by phase-contrast microscopy. At least 300 β-galactosidase-positive cells were counted for each transfection (n=3) and identified as apoptotic or nonapoptotic based on morphological alterations typical of adherent cells undergoing apoptosis including becoming rounded, condensed, and detaching from the dish (Cohen, J. J. (1993) Immunology Today 14, 126–130). […] Samples were analyzed by immunoblotting with anti-PARP monoclonal antibody C-2-10 as described previously Tewari, M., et al. (1995) Cell 81, 801–809).
(§2) To study the functional role of ICE LAP-6, MCF7 breast carcinoma cells were transiently transfected with an expression vector encoding the full-length ICE LAP-6 protein (ICE LAP-6-flag) and subsequently assessed for apoptotic features. […]

The target in a further assay is T2, pro-ICE LAP-6 (Homo sapiens, UniProt P55211, A28V/A96G/Q221R).
T2 construct: made in house; host or cells: cell-free in vitro transcription/translation, TNT kit (Promega)
T2 sequence (P55211 1-416 A28V/A96G/Q221R): T1 sequence (P55211 1-416 A28V/A96G/Q221R)
Nature of the assay: Proteolytic activation of in vitro-translated pro-ICE LAP-6 by granzyme B. The assay is classed as biochemical. Conditions: 20 pmole granzyme B, 4 hours at 37° C., SDS-PAGE.

Another assay concerns the target T3, pro-Yama (Homo sapiens, UniProt P42574).
T3 construct: His6; made in house; host or cells: cell-free in vitro transcription/translation, TNT kit (Promega)
T3 sequence (P42574 1-277): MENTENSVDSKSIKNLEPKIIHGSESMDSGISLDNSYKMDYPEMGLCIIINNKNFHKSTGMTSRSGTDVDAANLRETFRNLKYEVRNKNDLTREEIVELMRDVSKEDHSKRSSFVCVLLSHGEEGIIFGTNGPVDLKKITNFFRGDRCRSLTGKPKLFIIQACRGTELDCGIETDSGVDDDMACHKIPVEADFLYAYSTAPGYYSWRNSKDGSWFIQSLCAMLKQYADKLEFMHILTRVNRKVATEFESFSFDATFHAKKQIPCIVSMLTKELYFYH
Nature of the assay: Proteolytic activation of in vitro-translated pro-Yama by granzyme B. The format is biochemical. Conditions: purified granzyme B.

For the next assay, the system named is PARP. In words: PARP cleavage by granzyme B-processed protease (anti-PARP immunoblot). The format is biochemical. The conditions noted are these: after granzyme B processing, anti-GraB added, 2 hours, 37° C. Here is the method:
as §1, with “801–809). […]” for “801–809).”
On the technique in general: A western blot detects proteins with antibodies after separation by electrophoresis.

The test system of assay [1] is MCF7 breast carcinoma cells. In words: Apoptosis assay in transiently transfected MCF7 cells. The assay is classed as cell-based. Conditions: transient transfection of expression vector, morphology of β-galactosidase-positive cells, two days. Here is the method: as §1, §2

The values that follow come from US7115260B2, “Interleukin-1β converting enzyme like apoptotic protease-6” (Human Genome Sciences, Inc., priority 1996, dated 2006).

Changes are numbered by the printed parent chain. Peptide text beside a SMILES is read from it. * marks the point of attachment. Cbz = O=C(OCc1ccccc1)*; CH2F = FC*

On to `COC(=O)C[C@H](NC(=O)[C@H](C)NC(=O)[C@@H](NC(=O)OCc1ccccc1)C(C)C)C(=O)CF` [z-VAD fmk] (Cbz-Val-Ala-Asp(OMe)-CH2F), for which the “inhibition of ICE LAP-6 induced apoptosis” value against ICE LAP-6 is given as “inhibited”.
Regarding “granzyme B: secreted serine protease, effector of cytotoxic T cell-mediated apoptosis”, the “proteolytic processing of pro-ICE LAP-6” value in the assay with pro-ICE LAP-6 is recorded as “proteolytically processed into 3 fragments”. Further, the “activation of Yama in vitro” value with pro-Yama was “directly activates”.

B1: Yama: ICE/Ced-3 family cysteine protease; p17 and p12 subunits derived from a 32 kDa proenzyme (protein)
chain: MENTENSVDSKSIKNLEPKIIHGSESMDSGISLDNSYKMDYPEMGLCIIINNKNFHKSTGMTSRSGTDVDAANLRETFRNLKYEVRNKNDLTREEIVELMRDVSKEDHSKRSSFVCVLLSHGEEGIIFGTNGPVDLKKITNFFRGDRCRSLTGKPKLFIIQACRGTELDCGIETDSGVDDDMACHKIPVEADFLYAYSTAPGYYSWRNSKDGSWFIQSLCAMLKQYADKLEFMHILTRVNRKVATEFESFSFDATFHAKKQIPCIVSMLTKELYFYHHHHHHH
For the molecule B1, the “ability to cleave PARP” value in the assay on PARP is “active”.

B2: ICE LAP-6 mt: mutant version of ICE LAP-6 with the catalytic cysteine residue (Cys286) altered to an alanine (protein, UniProt P55211 1-416, looked up, variant C287A)
chain: T1 sequence (P55211 1-416 A28V/A96G/Q221R) with V28A, G96A, R221Q, C287A
For B2, the “induction of apoptosis / cell death on overexpression” value in assay [1] is reported as “did not induce apoptotic changes”.

B3: ICE LAP-6: novel human member of the ICE/ced-3 family of cysteine proteases, active site QACGG, predicted 45.8 kD (protein)
chain: MDEADRRLLRRCRLRLVEELQVDQLWDVLLSRELFRPHMIEDIQRAGSGSRRDQARQLIIDLETRGSQALPLFISCLEDTGQDMLASFLRTNRQAGKLSKPTLENLTPVVLRPEIRKPEVLRPETPRPVDIGSGGFGDVGALESLRGNADLAYILSMEPCGHCLIINNVNFCRESGLRTRTGSNIDCEKLRRRFSSLHFMVEVKGDLTAKKMVLALLELARQDHGALDCCVVVILSHGCQASHLQFPGAVYGTDGCPVSVEKIVNIFNGTSCPSLGGKPKLFFIQACGGEQKDHGFEVASTSPEDESPGSNPEPDATPFQEGLRTFDQLDAISSLPTPSDIFVSYSTFPGFVSWRDPKSGSWYVETLDDIFEQWAHSEDLQSLLLRVANAVSVKGIYKQMPGCFNFLRKKLFFKTSHHHHHH
For B3, the “induction of apoptosis / cell death on overexpression” value in assay [1] is on record as “caused cell death”. Also, in the assay with PARP, the “ability to cleave PARP” value is “active”.
